Biological target: T1, pyruvate kinase M2 (human (endogenous in U87), UniProt P14618 1-531)
T1 construct: pyruvate kinase M2 (PKM2), endogenous in the human glioblastoma cell line U87; In irradiated cells part of the nuclear PKM2 is phosphorylated at T328 by ATM; The lysates hold a mixture; also called PKM2; source: endogenous, U87 lysate
Assay: not stated; association of PKM2 and CtIP after irradiation, with the ATM inhibitor KU55933 against without; legend of Fig. S7a not shown
Settings: partners not purified

T1 sequence (P14618 whole entry): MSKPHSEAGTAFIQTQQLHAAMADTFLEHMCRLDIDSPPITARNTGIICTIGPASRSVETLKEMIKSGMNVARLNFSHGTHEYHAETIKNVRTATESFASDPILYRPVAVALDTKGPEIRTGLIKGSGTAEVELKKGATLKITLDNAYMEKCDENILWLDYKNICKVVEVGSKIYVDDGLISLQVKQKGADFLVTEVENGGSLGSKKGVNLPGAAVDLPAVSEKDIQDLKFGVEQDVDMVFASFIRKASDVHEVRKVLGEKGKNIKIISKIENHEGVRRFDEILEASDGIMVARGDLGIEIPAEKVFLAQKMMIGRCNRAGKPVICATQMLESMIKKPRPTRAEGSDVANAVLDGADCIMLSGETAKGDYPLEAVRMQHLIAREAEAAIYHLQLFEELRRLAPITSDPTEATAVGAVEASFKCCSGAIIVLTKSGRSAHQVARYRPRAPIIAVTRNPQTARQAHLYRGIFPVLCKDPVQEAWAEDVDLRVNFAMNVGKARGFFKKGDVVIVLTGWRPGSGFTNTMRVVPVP

B1: CtBP-interacting protein (natural protein, human (endogenous in U87), UniProt Q99708 1-897, looked up)
chain: MNISGSSCGSPNSADTSSDFKDLWTKLKECHDREVQGLQVKVTKLKQERILDAQRLEEFFTKNQQLREQQKVLHETIKVLEDRLRAGLCDRCAVTEEHMRKKQQEFENIRQQNLKLITELMNERNTLQEENKKLSEQLQQKIENDQQHQAAELECEEDVIPDSPITAFSFSGVNRLRRKENPHVRYIEQTHTKLEHSVCANEMRKVSKSSTHPQHNPNENEILVADTYDQSQSPMAKAHGTSSYTPDKSSFNLATVVAETLGLGVQEESETQGPMSPLGDELYHCLEGNHKKQPFEESTRNTEDSLRFSDSTSKTPPQEELPTRVSSPVFGATSSIKSGLDLNTSLSPSLLQPGKKKHLKTLPFSNTCISRLEKTRSKSEDSALFTHHSLGSEVNKIIIQSSNKQILINKNISESLGEQNRTEYGKDSNTDKHLEPLKSLGGRTSKRKKTEEESEHEVSCPQASFDKENAFPFPMDNQFSMNGDCVMDKPLDLSDRFSAIQRQEKSQGSETSKNKFRQVTLYEALKTIPKGFSSSRKASDGNCTLPKDSPGEPCSQECIILQPLNKCSPDNKPSLQIKEENAVFKIPLRPRESLETENVLDDIKSAGSHEPIKIQTRSDHGGCELASVLQLNPCRTGKIKSLQNNQDVSFENIQWSIDPGADLSQYKMDVTVIDTKDGSQSKLGGETVDMDCTLVSETVLLKMKKQEQKGEKSSNEERKMNDSLEDMFDRTTHEEYESCLADSFSQAADEEEELSTATKKLHTHGDKQDKVKQKAFVEPYFKGDERETSLQNFPHIEVVRKKEERRKLLGHTCKECEIYYADMPAEEREKKLASCSRHRFRYIPPNTPENFWEVGFPSTQTCMERGYIKEDLDPCPRPKRRQPYNAIFSPKGKEQKT
notes: also called CtIP; source: endogenous, U87 lysate
  fold reduction of the association by KU55933 after irradiation: > 2.5 fold
